Test results taken from publication PMC8184850, “Cryo-EM structure of TFIIH/Rad4–Rad23–Rad33 in damaged DNA opening in nucleotide excision repair” (Nature Communications, 2021).

B1: -24/+24 AAF (dsDNA)
DNA 1: CCCATTCCAACCATCCCACTACCTGTCCATCTTCACTCAACTATCACCC
DNA 2: GGGTGATAGTTGAGTGAAGATGGACAGGTAGTGGGATGGTTGGAATGGG
modifications: N-2-acetylaminofluorene adduct on the single G of strand 1 (nt 25, position 0)
B2: -24*/+24 AAF (dsDNA)
DNA 1: B1 DNA 1
DNA 2: GGGTGATAGTTGAGTGAAGATGGACAGGTAGTGGGATGGT
modifications: N-2-acetylaminofluorene adduct on the single G of strand 1 (nt 25, position 0)
B3: -24/+15 AAF (dsDNA)
DNA 1: CCCATTCCAACCATCCCACTACCTGTCCATCTTCACTCA
DNA 2: TGAGTGAAGATGGACAGGTAGTGGGATGGTTGGAATGGG
modifications: N-2-acetylaminofluorene adduct on the single G of strand 1 (nt 25); printed strand spans -24 to +14

Columns and labels:
[1] = biological target: T1, coreTFIIH (7 subunits);Rad4-Rad23 (Saccharomyces cerevisiae? (yeast, tfb6 …, UniProt Q00578;P06839;P32776;Q02939;Q04673;Q12004;Q3E7C1;P14736;P32628 …, |)); experiment: EMSA; AMP-PNP, 2 mM Mg2+; EMSA: 20 mM HEPES, 100 mM K-acetate, 2 mM Mg-acetate, 5 mM DTT, room temperature 20 min, 250 nM each component, 0.2x TBE agarose gel at 4 C (pH not stated in this buffer); conditions: protein: native;recombinant; tags: TAP tags on Tfb4 and Ssl2; TEV-treated;His-purified, thrombin-digested; copies: 1;1;1;1;1;1;1;1;1; label: 32P 5' end (T4 PNK) in EMSA; blunt
[2] = biological target: T2, coreTFIIH (7 subunits);Rad4-Rad23;Rad33 (Saccharomyces cerevisiae? (yeast, tfb6 …, UniProt Q00578;P06839;P32776;Q02939;Q04673;Q12004;Q3E7C1;P14736;P32628;Q04231 …, ||)); experiment: EMSA; 100 nM Rad33; Rad4-Rad23 0-100 nM; EMSA: 20 mM HEPES, 100 mM K-acetate, 2 mM Mg-acetate, 5 mM DTT, room temperature 20 min, 250 nM each component, 0.2x TBE agarose gel at 4 C (pH not stated in this buffer); conditions: protein: native;recombinant;recombinant; tags: TAP tags on Tfb4 and Ssl2; TEV-treated;His-purified, thrombin-digested;His (HisTrap-purified, pETDuet); copies: 1;1;1;1;1;1;1;1;1;1; label: 32P 5' end (T4 PNK) in EMSA; blunt
[3] = biological target: T2, coreTFIIH (7 subunits);Rad4-Rad23;Rad33; experiment: glycerol gradient sedimentation; ATP; EMSA: 20 mM HEPES, 100 mM K-acetate, 2 mM Mg-acetate, 5 mM DTT, room temperature 20 min, 250 nM each component, 0.2x TBE agarose gel at 4 C (pH not stated in this buffer); conditions: protein: native;recombinant;recombinant; tags: TAP tags on Tfb4 and Ssl2; TEV-treated;His-purified, thrombin-digested;His (HisTrap-purified, pETDuet); copies: 1;1;1;1;1;1;1;1;1;1; label: 32P 5' end (T4 PNK) in EMSA; 5' overhang on strand 1: 9 nt from printed strands (text says 10 nt)
[4] = biological target: T1, coreTFIIH (7 subunits);Rad4-Rad23; experiment: EMSA; ATP 4 mM, 2 mM Mg2+; EMSA: 20 mM HEPES, 100 mM K-acetate, 2 mM Mg-acetate, 5 mM DTT, room temperature 20 min, 250 nM each component, 0.2x TBE agarose gel at 4 C (pH not stated in this buffer); conditions: protein: native;recombinant; tags: TAP tags on Tfb4 and Ssl2; TEV-treated;His-purified, thrombin-digested; copies: 1;1;1;1;1;1;1;1;1; label: 32P 5' end (T4 PNK) in EMSA; 5' overhang on strand 1: 9 nt from printed strands (text says 10 nt)

Row | Binder | binding result [1] | binding result [2] | binding result [3] | binding result [4]
1 | B1 | binds | binds |  | 
2 | B2 |  |  | binds | binds
3 | B3 | binds |  |  | 
